Measurements: paper PMC3846092

Target: Cd^2+-bound Y82C-KcsA (UniProt P0A334)
Experiment: crystal structure

## Cd^2+-bound Y82C-KcsA (from UniProt P0A334 1-160) (natural protein)
  stoichiometry N: 4
